Measured values: the supplement of paper PMC10567573

B1: BTBD10 (parent)
chain: DRKLHSRPRKLYKHSSTSSRIAKG
B2: CDC25A (parent)
chain: KKFRTKSRTWAGEKSKREMYSRLK

Variants of: B1
Test: protein stability index of a GFP-peptide fusion (GPS, HEK-293T) (PSI 1-6); higher = more stable
Details: c terminus: a fixed tail appended
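Further: lentivirally expressed fusions sorted by FACS into six bins by GFP to DsRed ratio, PSI derived from sequencing read proportions per bin multiplied by bin number.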

Variant	protein stability index
A22L	3.03
A22T	3.55
A22S	4.15
A22I	3.58
A22Y	3.7
A22M	3.44
R2M	3.89
R2K	3.83
H14S	3.66
H14P	3.54
H14D	3.58
H14T	4.19
H14A	4.27
R9C	3.74
D1C	3.94
D1K	3.2
D1P	3.42
D1I	2.54
I21P	4.16
I21C	3.88
K23D	3.78
K23W	3.04
P8K	3.67
P8H	4.12
P8V	3.05
P8S	3.5

Variant	protein stability index
P8L	2.76
P8D	4.51
Y12V	4.08
Y12N	4.12
Y12W	4.1
Y12K	4.72
Y12G	4.65
Y12I	3.3
R20L	3.94
R20H	4.24
H5V	3.02
S19T	4.4
S19V	3.65
S19L	3.45
S19N	3.58
K10T	3.58
K10E	2.8
K10D	4.21
K10R	3.97
K10A	3.67
K10M	3.24
K10C	3.55
R7A	3.98
R7P	4.33
R7N	4.1
G24R	4

Variant	protein stability index
G24A	3.61
G24L	3.28
G24F	3.19
S15G	4.49
S15K	3.59
S15T	4.17
S16H	3.55
S16F	2.17
S16L	3.92
S16M	4
S16G	3.52
S18F	3.04
S18A	4.42
S18Y	2.88
S18L	4.3
L4M	4.23
L4N	3.77
L4W	3.5
L4G	3.72
K13V	3.69
K13M	2.84
K3L	3.77
K3T	3.83
K3P	3.92
S6H	3.68
S6V	3.91

Variants of: B2
Test: as above
Details: c terminus: a fixed tail appended

Variant	protein stability index
T9S	3.31
T9Y	3
T9P	3.12
T9N	3.55
T9Q	2.67
T9W	2.79
T9R	2.29
T9L	2.74
T9V	2.55
T9K	3.48
L23N	4.01
L23A	3.49
L23K	3.84
L23W	2.41
L23V	3.65
L23M	2.73
L23Q	3.74
L23R	4.46
L23H	3.39
L23T	3.61
L23C	2.87
L23Y	2.57
L23I	3.33
L23S	3.92

Variant	protein stability index
L23P	3.94
K14C	2.54
K14A	2.82
K14M	3.07
K14Y	2.25
K14T	3.1
K14S	2.44
K14W	1.6
K14H	2.82
K14V	2.41
K14G	4.36
K14N	4.05
K14F	2.44
K14R	2.61
K14L	2.51
K14Q	3.09
K14P	3.36
K14I	2.71
S21F	2.7
S21R	2.73
S21K	3.08
S21A	2.97
S21I	2.25
S21E	3.01

Variant	protein stability index
S21D	2.95
S21C	2.56
S21Q	2.54
S21G	3.32
S21N	3.21
S21M	3.36
S21T	2.56
S21P	2.99
S21Y	2.01
S21L	3.38
S21H	2.69
E18D	3.12
E18S	2.43
E18H	2.71
E18W	4.23
E18C	3.07
E18F	2.88
E18G	2.98
E18N	3
E18L	2.64
E18I	3.64
E18M	2.87
E18Q	2.37
E18Y	1.9

Variant	protein stability index
E18T	2.19
E18K	1.94
E18P	2.17
R17Y	3.4
R17F	2.86
R17A	2.77
R17V	2.97
R17H	3
R17D	3.6
R17N	2.24
R17C	3.34
R17S	3.08
R17P	4.04
R17K	2.21
R17T	3.48
R17Q	3.17
R17L	2.84
R17I	3.25
R17G	2.99
R22V	3.24
R22I	2.01
R22Q	2.83
R22N	3.81
R22Y	2.03

Variant	protein stability index
R22W	2.28
R22L	2.82
R22S	2.79
R22H	3.02
R22A	2.19
R22P	2.33
R22K	2.92
R22C	3.17
R22F	2.99
R22M	3.13
R22T	3.41
R22D	2.49
R22G	3.92
G12K	2.42
G12V	2.64
G12Y	2.61
G12A	3.21
G12S	2.64
G12N	2.26
G12I	2.43
G12F	2.68
G12P	3.93
G12Q	2.86
G12T	2.6

Variant	protein stability index
G12C	2.61
G12W	2.5
G12E	2.82
G12L	2.11
G12M	3.44
W10G	3.92
W10V	3.9
W10Y	3.14
W10S	2.79
W10T	3.56
W10M	3.66
W10D	3.9
W10A	3.89
W10F	3.47
W10H	3.76
W10I	2.97
W10N	3.6
W10L	3.53
W10P	3.55
W10R	3.41
W10C	4.02
W10Q	4.03
A11Q	3.28
A11R	2.25

Variant	protein stability index
A11M	2.14
A11I	2.77
A11H	3.01
A11K	2.7
A11L	2.5
A11S	4.42
A11W	2.61
A11N	2.91
A11G	3.2
A11V	2.74
A11E	2.81
A11C	2.73
A11Y	2.82
A11P	3.98
A11D	2.92
A11T	3.22
A11F	2.62
K16R	1.22
K16I	2.28
K16N	3
K16G	2.79
K16P	3.11
K16W	2.1
K16H	3.56

Variant	protein stability index
K16Q	3.71
K16M	3.99
K16Y	2.38
K16L	3.16
K16D	3.24
K16V	2.78
K16A	2.62
K16S	3.04
K24S	3.16
K24Q	2.58
K24R	2.91
K24T	2.94
K24Y	1.37
K24F	2.06
K24I	2.32
K24C	2.08
K24M	2.37
K24N	3.32
K24P	3.49
K24E	3.27
K24G	2.52
K24H	2.62
K24D	3.13
K24A	2.37

Variant	protein stability index
K24L	2.31
M19R	3.44
M19S	4.21
M19F	3.53
M19I	2.8
M19E	3.79
M19L	2.7
M19P	3.41
M19T	3
M19Q	4.14
M19W	2.77
M19Y	3.24
M19H	3.54
M19N	4.2
M19D	4.05
M19A	3.13
M19K	4.05
Y20D	3.35
Y20I	3.13
Y20P	4.12
Y20F	2.88
Y20M	3.29
Y20Q	4.34
Y20H	3.01

Variant	protein stability index
Y20S	4.69
Y20K	4.45
Y20V	2.92
Y20T	3.41
Y20W	2.37
Y20C	3.97
Y20N	3.02
Y20L	2.33
S15K	3.14
S15D	3.3
S15Y	1.94
S15R	2.73
S15W	1.3
S15G	2.52
S15T	3.88
S15M	3.2
S15H	3.12
S15L	2.58
S15N	2.52
S15Q	2.38
S15A	3.72
S15V	2.52
S15F	3.34
S15I	2.45

Variant	protein stability index
S15C	3.4
E13I	3.07
E13W	3.5
E13N	2.79
E13D	3.61
E13G	3.29
E13F	2.19
E13R	3.63
E13K	3.49
E13P	3.27
E13T	3.43
E13L	4.12
E13Y	3.25
E13S	2.97
E13H	3.1
E13Q	3.34
